{
  "source": "patent US20130115224A1",
  "about": "(published 2013)",
  "binders": {"B1": {"name": "3C-H2 / LOE7 scFv (scFv, V domains shown)", "VH": "QVQLVESGGGLVQPGRSLRLSCAASGFTFDDYAMHWVRQAPGKGLDWVSAITWNSGHIDYADSVEGRFAVSRDNAKNALYLQMNSLRPEDTAVYYCAKASYLSTASSLEYWGQGTLVTVSS", "VL": "not shown"}, "B2": {"name": "2SD4 VH / VLLOE5 scFv (scFv, V domains shown)", "VH": "B1 VH with A97T, A105S, E109D, Y110N", "VL": "DIQMTQSPSSLSASIGDRVTITCRASQGIRNYLAWYQQKPGKAPKLLIYAASTLQSGVPSRFSGSGSGTDFTLTISSLQPEDVATYYCQKYNSAPYYFGQGTKVEIK"}},
  "key": {"[1]": {"target": "T1, recombinant human TNFα (human, UniProt P01375 77-233, biotinylated (2:1 molar ratio of biotin to rhTNFα) in the SPR assays; 125I-labeled in the receptor binding assays)", "T1 construct": "also called rhTNFα; rhTNF", "T1 sequence (P01375 77-233 limits assumed)": "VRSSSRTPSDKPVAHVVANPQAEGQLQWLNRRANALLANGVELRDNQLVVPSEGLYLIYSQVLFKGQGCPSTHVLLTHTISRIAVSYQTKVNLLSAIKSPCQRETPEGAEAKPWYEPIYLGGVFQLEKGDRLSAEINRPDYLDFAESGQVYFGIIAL", "experiment": "SPR (BIAcore), scFv over biotinylated rhTNFα"}, "[2]": {"target": "T1, recombinant human TNFα", "experiment": "SPR (BIAcore), scFv over biotinylated rhTNFα", "remark": "listed apart in the source"}},
  "note": "Numbering of substitutions follows the chain as printed.",
  "data": [
    {"binder": "B1", "values": [
      {"measurement": "koff", "setting": "[1]", "value": 0.0015, "unit": "s⁻¹"},
      {"measurement": "fold faster off rate than with the D2E7 VH CDR3", "setting": "[2]", "value": 3, "unit": "fold"}
    ]},
    {"binder": "B2", "values": [
      {"measurement": "koff", "setting": "[1]", "value": 0.0116, "unit": "s⁻¹"}
    ]}
  ]
}
